The text below walks through data of article PMC9122904, “Insights into the client protein release mechanism of the ATP-independent chaperone Spy” (Nature Communications, 2022).

First the molecules themselves.
B1: carboxymethylated α-lactalbumin (natural protein, bovine, UniProt P00711 20-142, looked up)
chain: EQLTKCEVFRELKDLKGYGGVSLPEWVCTTFHTSGYDTQAIVQNNDSTEYGLFQINNKIWCKDDQNPHSSNICNISCDKFLDDDLTDDIMCVKKILDKVGINYWLAHKALCSEKLDQWLCEKL
modifications: carboxymethylated (residues not stated); biotin (EZ-link NHS-biotin, 1:1 molar ratio of biotin to protein)
notes: α-lactalbumin, carboxymethylated and thereby unfolded; also called unfolded α-LA
B5: Spy_(29-138) (domain or fragment, UniProt P77754 52-161, looked up)
chain: FKDLNLTDAQKQQIREIMKGQRDQMKRPPLEERRAMHDIIASDTFDKVKAEAQIAKMEEQRKANMLAHMETQNKIYNILTPEQKKQFNANFEKRLTERPAAKGKMPATAE
notes: source: E. coli BL21 (DE3), purified (Ni-NTA, cation exchange, SEC); not shown: His6, N-terminal, cleaved; SUMO, N-terminal, cleaved

Holding throughout (details): both partners purified
For test [1], the target named is T1, Spy wild type (Spy_(1-138)) (UniProt P77754 24-161).
T1 construct: Spy, ATP-independent periplasmic chaperone; also called WT; wt; source: E. coli BL21 (DE3), purified (Ni-NTA, cation exchange, SEC); not shown: His6, N-terminal, cleaved; SUMO, N-terminal, cleaved
T1 sequence (looked up): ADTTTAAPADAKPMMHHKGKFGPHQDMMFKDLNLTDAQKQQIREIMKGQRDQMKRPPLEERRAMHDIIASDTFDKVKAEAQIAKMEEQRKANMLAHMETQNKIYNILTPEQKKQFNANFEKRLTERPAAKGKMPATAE
The test is described as follows: BLI; Octet RED96; client biotinylated and loaded on streptavidin sensors; Spy or Spy variant in solution at 0.25, 0.5, 1, 1.5 and 2 μM; 40 mM HEPES, 150 mM NaCl, pH 7.5; Kd calculated as koff/kon.

For test [2], the target named is T1, Spy wild type (Spy_(1-138)). The description is as above. The source holds these as a separate data set.
For test [3] the target is unchanged. The description is as above. This is another data set of the same source.
Test [4] concerns the target T2, Spy_(29-124) (Escherichia coli K-12 substr. MG1655, UniProt P77754 52-147).
T2 construct: [15N]-labeled in the NMR titrations; also called termini-free Spy; source: E. coli BL21 (DE3), purified (Ni-NTA, cation exchange, SEC); not shown: His6, N-terminal, cleaved; SUMO, N-terminal, cleaved
T2 sequence (looked up): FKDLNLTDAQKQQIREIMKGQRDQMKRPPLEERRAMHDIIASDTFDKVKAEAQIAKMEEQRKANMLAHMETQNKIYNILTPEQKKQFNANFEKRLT
In words: NMR titration; 0.1 mM [15N]-Spy29-124 titrated with unlabeled peptide at Spy29-124:peptide 1:2 to 1:40; 1H-15N HSQC, 40 mM HEPES-NaOH, 150 mM NaCl, pH 7.5, 25 °C; global one-site fit of the CSPs of M64, H65, D66, I67, A69, K113, N116, A117, K121; saturation not reached, Kd only an estimate.

The target in test [5] is B1. The test is described as follows: BLI; Octet RED96; client biotinylated and loaded on streptavidin sensors; Spy or Spy variant in solution at 0.25, 0.5, 1, 1.5 and 2 μM; 40 mM HEPES, 150 mM NaCl, pH 7.5; Kd calculated as koff/kon.
The target of test [6] is B1. The test is described as above. The source holds these as a separate data set.
The target in test [7] is B1. The test is described as above. The source holds these as a separate data set.
Another test concerns the target T3, Spy (GGGS)2 (Escherichia coli K-12 substr. MG1655, UniProt P77754 24-161, (GGGS)2 linker inserted between D26 and M27).
T3 construct: also called Spy variant with a (GGGS)2 linker inserted between D26 and M27; source: E. coli BL21 (DE3), purified (Ni-NTA, cation exchange, SEC); not shown: His6, N-terminal, cleaved; SUMO, N-terminal, cleaved
T3 sequence (looked up): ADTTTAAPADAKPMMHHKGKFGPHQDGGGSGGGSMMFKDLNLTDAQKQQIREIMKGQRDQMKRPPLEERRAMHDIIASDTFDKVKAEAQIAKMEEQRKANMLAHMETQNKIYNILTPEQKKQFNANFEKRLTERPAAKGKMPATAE
The test is described as follows: BLI; Octet RED96; biotinylated client loaded on streptavidin sensors, dipped into Spy or Spy variants (0.25, 0.5, 1, 1.5, 2 uM) in 40 mM HEPES, 150 mM NaCl, pH 7.5; kon from kobs against [Spy], Kd = koff/kon. (In general: Biolayer interferometry detects binding as a change in optical thickness at a sensor tip.)

The target in a further test is T4, Spy wild type (Escherichia coli K-12 substr. MG1655, UniProt P77754 24-161).
T4 construct: also called WT; source: E. coli BL21 (DE3), purified (Ni-NTA, cation exchange, SEC); not shown: His6, N-terminal, cleaved; SUMO, N-terminal, cleaved
T4 sequence (looked up): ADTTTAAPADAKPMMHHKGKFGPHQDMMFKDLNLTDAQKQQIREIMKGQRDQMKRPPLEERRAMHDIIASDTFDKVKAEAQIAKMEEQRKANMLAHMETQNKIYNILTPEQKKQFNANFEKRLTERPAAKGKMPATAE
Described as above.

Test [8] addresses B5. The test is described as follows: BLI; Octet RED96; client biotinylated and loaded on streptavidin sensors; Spy or Spy variant in solution at 0.25, 0.5, 1, 1.5 and 2 μM; 40 mM HEPES, 150 mM NaCl, pH 7.5; Kd calculated as koff/kon.
The target in test [9] is B5. Described as above. The source holds these as a separate data set.
In test [10] the target is B5. Described as above. This is another data set of the same source.
Another test deals with T5, Im7 H40W L53A I54A (UniProt Q03708 1-87, H40W | L53A | I54A, biotin (EZ-link NHS-biotin, 1:1 molar ratio of biotin to protein)).
T5 construct: Im7 (colicin E7 immunity protein), partially folded mutant; also called Im7AAW; source: purified by a similar procedure to Spy
T5 sequence: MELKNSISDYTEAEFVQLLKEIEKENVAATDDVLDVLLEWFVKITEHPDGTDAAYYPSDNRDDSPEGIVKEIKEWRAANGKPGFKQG
The test is described as follows: BLI; Octet RED96; biotinylated client loaded on streptavidin sensors; Spy or Spy variants at 0.25, 0.5, 1, 1.5 and 2 μM in 40 mM HEPES, 150 mM NaCl, pH 7.5; Kd = koff/kon.

Test [11] concerns the target T6, Spy_(29-124) (UniProt P77754 52-147).
T6 construct: structured region of Spy, both disordered termini deleted; residue n is n+23 in P77754; Isotope-labelled ([15N], [13C,15N] or [2H,13C,15N]) in the NMR experiments; source: E. coli BL21 (DE3), purified (Ni-NTA, cation exchange, SEC); not shown: His6-SUMO, N-terminal, cleaved
T6 sequence (looked up): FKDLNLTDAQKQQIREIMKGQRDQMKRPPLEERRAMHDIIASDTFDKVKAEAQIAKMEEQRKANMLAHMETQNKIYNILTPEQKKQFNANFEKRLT
In words: NMR titration; 0.1 mM [15N]-Spy_(29-124) with unlabeled peptide at molar ratios 1:2 to 1:40; 2D 1H-15N HSQC; 40 mM HEPES-NaOH, 150 mM NaCl, pH 7.5, 25 °C; one-site binding model.

Take B1: the koff (usually the first-order rate constant of dissociation) in test [1] is 0.726 s⁻¹. In test [2], the kon (in general, a measure of how fast the partners come together) was 216000 M⁻¹ s⁻¹. For the same molecule, the Kd – broadly, the free concentration of one partner at which half of the binding sites on the other are occupied at equilibrium, for simple one-to-one binding – in test [3] is 3360 nM.

B2: Nt-pep (peptide)
peptide: ADTTTAAPADAKPMMHHKGKFGPHQDMM
notes: Unlabeled peptide; also called Nt-pep WT; peptide corresponding to Spy residues 1-28
Turning to B2, the Kd with Spy_(29-124) [4] was 4.74 ± 0.16 mM.

B3: Nt-pep D26R (peptide, UniProt P77754 24-51, looked up)
peptide: ADTTTAAPADAKPMMHHKGKFGPHQRMM
notes: Spy of E. coli, residues 1-28 with D26R
As to B3, in the test with Spy_(29-124) [4], the Kd is 7.04 ± 0.28 mM.

B4: Nt-pep D26K (peptide, UniProt P77754 24-51, looked up)
peptide: ADTTTAAPADAKPMMHHKGKFGPHQKMM
notes: Spy of E. coli, residues 1-28 with D26K
In the case of B4, the Kd with Spy_(29-124) [4] was 6.33 ± 0.25 mM.
As to B5, the koff in [5] is 0.0584 s⁻¹. In addition, the kon in test [6] was 145000 M⁻¹ s⁻¹. Besides, in test [7], the Kd was 400 nM.

B6: Im7 H40W L53A I54A (natural protein)
chain: MELKNSISDYTEAEFVQLLKEIEKENVAATDDVLDVLLEWFVKITEHPDGTDAAYYPSDNRDDSPEGIVKEIKEWRAANGKPGFKQG
modifications: biotin (EZ-link NHS-biotin, 1:1 molar ratio of biotin to protein)
notes: Im7, colicin E7 immunity protein (gene ceiE7), partially folded mutant H40W L53A I54A; The methods say only that Im7 variants were purified by a similar procedure to Spy (His6-SUMO tag removed); also called Im7AAW; biotin-labeled Im7AAW; source: purified by a similar procedure to Spy
Take B6: in the test with Spy (GGGS)2, the equilibrium dissociation constant (Kd) worked out at 530 nM, the koff was determined as 0.123 s⁻¹ and the kon came to 234000 M⁻¹ s⁻¹. In the test with Spy wild type, the Kd amounted to 640 nM, the koff was found to be 0.178 s⁻¹ and the kon worked out at 276000 M⁻¹ s⁻¹.

B7: Im7 L18A L19A L37A (natural protein)
chain: MELKNSISDYTEAEFVQAAKEIEKENVAATDDVLDVALEHFVKITEHPDGTDLIYYPSDNRDDSPEGIVKEIKEWRAANGKPGFKQG
modifications: biotin (EZ-link NHS-biotin, 1:1 molar ratio of biotin to protein)
notes: Im7 (colicin E7 immunity protein) with L18A L19A L37A; also called Im7A3; unfolded client; source: purified by a similar procedure to Spy
Turning to B7, the koff with Spy_(29-138) [8] was 0.087 s⁻¹; in test [1], 0.199 s⁻¹. In addition, the kon with Spy_(29-138) [9] was 254000 M⁻¹ s⁻¹; in [2] it was 299000 M⁻¹ s⁻¹. Moreover, the Kd is 340 nM with Spy_(29-138) [10] and 670 nM in test [3].

B8: Im7 wild type (natural protein)
chain: MELKNSISDYTEAEFVQLLKEIEKENVAATDDVLDVLLEHFVKITEHPDGTDLIYYPSDNRDDSPEGIVKEIKEWRAANGKPGFKQG
modifications: biotin (EZ-link NHS-biotin, 1:1 molar ratio of biotin to protein)
notes: Im7 (colicin E7 immunity protein), wild type; also called Im7 WT; Im7WT; source: purified by a similar procedure to Spy
As to B8, the koff is 0.048 s⁻¹ with Spy_(29-138) [8] and 0.114 s⁻¹ in test [1]. Further, the figures for the kon (with Spy_(29-138) [9]; in [2]) were 178000 M⁻¹ s⁻¹ and 244000 M⁻¹ s⁻¹, respectively. Further, the results for the Kd (in the test with Spy_(29-138) [10]; in [3]) were 270 nM and 470 nM, respectively.

B9: Spy_(21-130) (domain or fragment, UniProt P77754 44-153, looked up)
chain: FGPHQDMMFKDLNLTDAQKQQIREIMKGQRDQMKRPPLEERRAMHDIIASDTFDKVKAEAQIAKMEEQRKANMLAHMETQNKIYNILTPEQKKQFNANFEKRLTERPAAK
notes: previously characterized truncation mutant of Spy; residue n is n+23 in P77754; source: E. coli BL21 (DE3), purified (Ni-NTA, cation exchange, SEC); not shown: His6-SUMO, N-terminal, cleaved
On to B9, for which, in the test with Im7 H40W L53A I54A, the “fold increase in koff (against Spy wild type)” value is roughly 2 fold.

B10: Nt-pep (peptide, UniProt P77754 24-51, looked up)
peptide: ADTTTAAPADAKPMMHHKGKFGPHQDMM
notes: disordered N terminus of Spy as a free peptide; residue n is n+23 in P77754; also called peptide corresponding to Spy residues 1-28
For the molecule B10, the Kd in the test with Spy_(29-124) [11] amounted to 4.7 mM.
